Data reported in PMC4890538.

Experiments:
[1] = biological target: recombinant Glutathione-S-Transferase (GST) tagged PfLDH (Plasmodium falciparum lactate dehydrogenase) (Plasmodium falciparum); experiment: fluorescence polarisation
[2] = biological target: recombinant Glutathione-S-Transferase (GST) tagged PfLDH (Plasmodium falciparum lactate dehydrogenase) (Plasmodium falciparum)

Sequence of recombinant Glutathione-S-Transferase (GST) tagged PfLDH (Plasmodium falciparum lactate dehydrogenase) (Plasmodium falciparum) (Q27743 whole entry): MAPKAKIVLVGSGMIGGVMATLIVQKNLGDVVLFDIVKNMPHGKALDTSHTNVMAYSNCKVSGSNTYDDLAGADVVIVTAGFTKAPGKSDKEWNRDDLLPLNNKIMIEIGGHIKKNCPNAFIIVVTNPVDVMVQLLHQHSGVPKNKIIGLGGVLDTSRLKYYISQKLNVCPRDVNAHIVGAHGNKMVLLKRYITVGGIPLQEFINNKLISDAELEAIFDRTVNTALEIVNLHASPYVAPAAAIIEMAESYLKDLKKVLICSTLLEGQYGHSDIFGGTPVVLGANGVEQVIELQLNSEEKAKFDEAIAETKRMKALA

Binder	Kd [1]	EC50 [2]
HWSAN (not fully specified) [Cy(HWSAN-click), fluorescein tagged]	40.6 nM	
HWSAN (not fully specified) [Cy(HWSAN-click), biotin tagged]		23.4 nM
